This test concerns the target Nematocida displodere mechanosensitive ion channel of small conductance 2, MscS2Δ2–29 (His14-SUMO tag cleaved) (Nematocida displodere). Nature of the test: cryo-EM structure; single-particle, 0.33 mg/mL in DDM, 200 kV Glacios; consensus refinement without symmetry 8.3 Å, focused refinement of two channels 7.7 Å.

Regarding “Nematocida displodere mechanosensitive ion channel of small conductance 2, MscS2Δ2–29 (His14-SUMO tag cleaved) (domain or fragment)”, the heptameric channels in the superstructure worked out at 6 and the stoichiometry N (usually the number of molecules, sites or subunits per partner or assembly) was found to be 7.
